Measured values reported in publication PMC3386930, “Altering APP Proteolysis: Increasing sAPPalpha Production by Targeting Dimerization of the APP Ectodomain” (PLoS ONE, 2012).
Entries after “also recorded” stand apart in the source; their conditions may differ.

Tests used:
[1] = molecular target: T1, eAPP230–624 (Homo sapiens, UniProt P05067); test: Intrinsic tryptophan fluorescence of eAPP230–624; type: binding; details: for inhibition of eAPP dimerization (in words): legend of titration of 0.64 µM eAPP230–624 with 0–60 µM fragment; for log(EC50), EC50 = molar ratio Aβ to eAPP230–624 that invokes half the response: quenching at 375 nm, equation 4, n constrained to 7, R^2 = 0.88, differences not significant at p<0.05
T1 construct: made in house
Protocol: (§1) The excitation spectra of the intrinsic tryptophan fluorescence were recorded using either a Shimadzu RF-530PC (Shimadzu Scientific Instruments) or a Spectramax XPS spectrophotometer (Molecular Devices).
Full emission spectra were measured with the Shimadzu RF-530PC using a 3 ml quartz cuvette, a 5 nm slit width and protein concentrations between 0.2–0.6 µM. […] For these larger dilutions, control titrations with the protein alone were used to generate a scaling matrix where the scale factor was both a function of wavelength and dilution. […] A similar scaling matrix was used to correct for the effect of dilution with DMSO. […] All titrations were performed at 24°C. The oligomers were stored on ice during the experiment.
These concentrations are analogous to concentrations used to create complexes for the small angle x-ray scattering analysis. The incubated material was diluted with PBS so that the final protein concentration was 0.5 µM. The spectra were recorded with the Shimadzu […].
For experiments with the Spectromax XPS plate reader, an excitation wavelength of 295 nm was used. This excitation wavelength was chosen to minimize both the contribution of tyrosine in the protein and the background fluorescence of the 96-well plates (Costar #3915).
For the quenching experiments, the data were analyzed by constructing Stern-Volmer plots, F0/F vs. Q, where Fo is the intensity of the fluorescence at zero concentration, F is the intensity of the fluorescence, and Q is the concentration of the quenching agent. When quenching is through either a static (binding) or dynamic (collisional) mechanism this plot is linear and follows the equation: [drawing 1] (1) where Ksv is the quenching constant. When both processes are present the Stern-Volmer plot is quadratic: [drawing 2] (2) where KD is the equilibrium constant associated with dynamic quenching and Ks is the equilibrium constant associated with static quenching. All parameters were determined using PRISM (GraphPad) and the appropriate non-linear curve fitting routine.
The centroid wavelength (λc) was calculated as: [drawing 3] (3) where I(λi) is the intensity observed for the wavelength (λi). The range of wavelengths was 310–390 nm.

[2] = molecular target: T1, eAPP230–624; test: Small-angle X-ray scattering (SAXS) of eAPP230–624 complexes; type: binding; details: for Dmax / Rg: SAXS, GNOM, eAPP230–624 with peptide; for Dmax: maximum dimension, max. estimated error ±10 Å; for Rg: radius of gyration, max. estimated error ±2 Å
Protocol: (§2) The samples were incubated on ice for 20 minutes and then concentrated to 50 µl with 10-kDa cutoff concentrators (Millipore). […] Samples of the filtrates were used for buffer subtraction.
(§3) The samples were then concentrated and purified with a Superdex S200 size-exclusion column with 20 mM Tris pH 7.4, 100 mM sodium chloride and 2 mM EDTA. Samples of the protein buffer from the size-exclusion columns were used for buffer subtraction.
(§4) Data collection and processing
(§5) Small-angle X-ray scattering data were collected using protein concentrations in the range of 0.5–3 mg/ml and an X-ray wavelength of 1.11 Å at beam line 12.3.1 (Advanced Light Source). Data were integrated with software customized for the beam line and processed with the program PRIMUS [30]. The program GNOM [31] was used to calculate the maximum dimension and the radius of gyration and to estimate the intensity of the scattering at zero angle for higher concentration samples.

[3] = tested on: 7W-CHO cells; test: sAPPα and sAPPβ production in 7W-CHO cells (AlphaLISA); type: cell-based; details: for sAPPα production / α-cleavage of APP (in words): 1 µM compound, 24 hours, 50,000 cells per well, vs 0.01% DMSO
Protocol: (§6) B103 rat neuroblastoma cells and 7W-CHO cells were seeded at 100,000 or 50,000 cells per well in a 96-well plate and allowed to grow for one day. The B103 rat neuroblastoma cells stably expressing human wild-type APP were a kind gift from Dr. Lennart Mucke (J. David Gladstone Institute of Neurological Disease and University of California, San Francisco). The 7W-CHO cells were a kind gift from Dr. Edward Koo (Department of Molecular Pathology, University of California, San Diego). The cell culture medium was then changed and the cells treated with 1 µM disulfiram, 1 µM sulfiram, or 0.01% DMSO (control). After 24 hours, the amount of sAPPα and sAPPβ produced in the medium was quantified using the AL231C and AL232C AlphaLISA kits from Perkin Elmer, respectively, modified using a custom biotinylated APP antibody.
A) Effect of treatment with disulfiram and sulfiram on sAPPα and Aβ production in 7W-CHO cells. 7W-CHO cells were seeded at 50,000 cells per well in a 96-well plate and allowed to grow for one day. The cell culture medium was then changed and the cells treated with 1 µM disulfiram, 1 µM sulfiram, or 0.01% DMSO (control). After 24 hours, the amount of sAPPα and sAPPβ produced in the medium was quantified using the AL231C and AL232C AlphaLISA kit from Perkin Elmer, modified using a custom biotinylated human APP antibody. B) Effect on the ratio of α to β cleavage in 7W-CHO cells, as calculated by dividing the amount of sAPPα to sAPPβ produced by the 50,000 7W-CHO cells during one day under the effect of either disulfiram, sulfiram or a DMSO control. C) Effect on the ratio of α to β cleavage in B103 cells. B103 neuroblastoma cells were seeded at 100,000 cells per well in a 96-well plate and allowed to grow for one day. The cell culture medium was then changed and the cells treated with 1 µM disulfiram, 1 µM sulfiram, or 0.01% DMSO (Control). After 24 hours, the amount of sAPPα and sAPPβ produced in the medium was quantified using the same modified AL231C and AL232C AlphaLISA kit from Perkin Elmer. The ratio of α to β cleavage was calculated by dividing the amount of sAPPα to sAPPβ produced by the 100,000 B103 cells during one day under the effect of the disulfiram, sulfiram or DMSO control.

[4] = tested on: B103 rat neuroblastoma cells stably expressing human wild-type APP; test: sAPPα and sAPPβ production in B103 cells (AlphaLISA); type: cell-based; details: 1 µM compound, 24 hours, 100,000 cells per well, vs 0.01% DMSO
Protocol: as §6
A) Effect of treatment with disulfiram and sulfiram on sAPPα and Aβ production in 7W-CHO cells. […] After 24 hours, the amount of sAPPα and sAPPβ produced in the medium was quantified using the AL231C and AL232C AlphaLISA kit from Perkin Elmer, modified using a custom biotinylated human APP antibody. B) Effect on the ratio of α to β cleavage in 7W-CHO cells, as calculated by dividing the amount of sAPPα to sAPPβ produced by the 50,000 7W-CHO cells during one day under the effect of either disulfiram, sulfiram or a DMSO control. […]

[5] = molecular target: T1, eAPP230–624; test: Difference absorption spectra of eAPP230–624; type: binding; details: 1:6 molar ratio, 8.3 µM eAPP230–624, 50 µM compound, PBS plus 2% DMSO
[6] = tested on: MBP-eAPP230–624; test: Small-angle X-ray scattering (SAXS) of MBP-eAPP230–624 complexes; type: binding; details: 50 µM compound, 1:12 molar ratio, PBS plus 2% DMSO
Protocol: as §1, §2, §3, §4, §5

[7] = molecular target: MBP-eAPP_(230–624), maltose binding protein fusion protein containing residues 230–624 (UniProt P05067); test: small-angle X-ray scattering (SAXS); 150 µl MBP-eAPP230-624 (≈0.5 mg/ml) diluted with 400 µl of peptide solution, 20 minutes on ice, concentrated to 50 µl with 10-kDa cutoff concentrators
[8] = molecular target: TRX-eAPP_(290–624), thioredoxin fusion protein containing residues 290–624 of APP695 (UniProt P05067); test: small-angle X-ray scattering (SAXS); eAPP fragment incubated on ice with Aβ oligomers or Aβ fragments (peptide less than 10 µM), concentrated and purified on Superdex S200 in 20 mM Tris pH 7.4, 100 mM sodium chloride, 2 mM EDTA
[9] = molecular target: the molecule itself; test: small-angle X-ray scattering (SAXS); eAPP fragment alone; 0.5–3 mg/ml, X-ray wavelength 1.11 Å; relative mass from I(0) against albumin and the eAPP fragment dimer
[10] = incubated, 1:6 molar ratio, 0.5 µM eAPP230–624

## Aβ12-24: Aβ fragment (VHHQKLVFFAEDV; Amyloid-beta protein 42; UniProt P05067 683-695, looked up, fragment)
[1]
  inhibition of eAPP dimerization (in words): inhibit eAPP dimerization

## Aβ1-42 species greater than 200-kDa: Aβ1-42 species greater than 200-kDa in size
[1]; Spectramax XPS, increasing molar ratio, up to 120 µM Aβ
  effect on intrinsic fluorescence at 375 nm (in words): slight enhancement of the intrinsic fluorescence
[1]; [10]
  change in fluorescence spectra (in words): relatively minor change in the fluorescence spectra

## 13-kDa Aβ1-42: 13-kDa Aβ1-42 oligomers, predominately trimers
[1]; rapid dilution, final 1:27 molar ratio, 0.64 µM eAPP230–624, Shimadzu RF-530PC
  increase in intensity of the fluorescence: 114%

## Aβ12-28: Aβ fragment
[1]
  inhibition of eAPP dimerization (in words): inhibit eAPP dimerization
[1]; titration of 0.64 µM eAPP230–624, 345 nm
  pattern of changes in the intrinsic fluorescence (in words): acted like Aβ1-40 dimers in terms of the changes in the intrinsic fluorescence

## 7-kDa Aβ1-40: 7-kDa Aβ1-40 dimers, prepared by sonication and 15 minutes incubation
[1]
  inhibition of eAPP dimerization (in words): inhibit eAPP dimerization
[2]; SAXS relative mass, MWseq 45-kDa for eAPP230–624, max. error ±0.2, monomer around 1.3, protein alone 2.0
  MWcalc/MWseq: 1.2
[2]
  Dmax: 180 Å
  Rg: 49 Å

## CCN(CC)C(=S)SC(=S)N(CC)CC [Sulfiram]
[3]
  sAPPα production / α-cleavage of APP (in words): increase sAPPα production
[3]; listed as sulfiram
  sAPPα production / α-cleavage of APP (in words): significantly enhance the production of sAPPα; also recorded: enhance α-cleavage significantly
[3]; sulfiram vs disulfiram, cell line not stated at place
  relative ability to enhance sAPPα production in cells (in words): reduced ability to enhance sAPPα production in cells
[1]; 0.64 µM eAPP230–624, disulfiram 0–130 µM, sulfiram 0–320 µM, Shimadzu RF-530PC
  quenching of intrinsic fluorescence (in words): significantly quenched the intrinsic fluorescence
[1]; intrinsic fluorescence, confirmed with SAXS
  effect on dimerization of the ectodomain fragment (in words): inhibit dimerization of the ectodomain fragment
[4]
  sAPPα production / α-cleavage of APP (in words): significantly enhance the production of sAPPα; also recorded: enhance α-cleavage significantly
[5]
  change in extinction coefficient: significant drop in the extinction coefficient
[6]
  effect on monomer-dimer equilibrium / dimerization of MBP-eAPP230–624 (in words): significantly affected the monomer-dimer equilibrium of MBP-eAPP230–624 in favor of the monomer; also recorded: shift the monomer-dimer equilibrium in favor of the monomer

## 70-kDa Aβ1-40: 70-kDa Aβ1-40 oligomer pool
[1]; Spectramax XPS
  log(EC50), EC50 = molar ratio Aβ to eAPP230–624 that invokes half the response: 1.32±0.01

## 13-kDa Aβ1-40: 13-kDa Aβ1-40 oligomer pool
[1]; from ratio of amplitudes of maximal response, vs 70-kDa pools, Spectramax XPS
  more oligomers that can bind eAPP (ratio of amplitudes A): about 150%
[1]; [10]
  blue-shift in the centroid wavelength: did not produce a significant blue shift
  fluorescence intensity relative to eAPP230–624: 80%
[1]; Spectramax XPS
  log(EC50), EC50 = molar ratio Aβ to eAPP230–624 that invokes half the response: 1.27±0.02

## 20-kDa Aβ1-42: 20-kDa Aβ1-42 oligomers
[2]
  Dmax: 170 Å
  Rg: 46 Å

## Aβ10-20 (peptide)
[7]
  MWcalc/MWseq (apparent mass of the sample over the sequence mass of the eAPP fragment): 1.3

## Aβ5-14: Aβ fragment (RHDSGYEVHH; Amyloid-beta protein 42; UniProt P05067 676-685, looked up, fragment)
[1]
  inhibition of eAPP dimerization (in words): inhibit eAPP dimerization

## Aβ11-17 (peptide)
[8]
  MWcalc/MWseq (apparent mass of the sample over the sequence mass of the eAPP fragment): 1.2

B1: MBP-eAPP_(230–624), maltose binding protein fusion protein containing residues 230–624 (domain or fragment, UniProt P05067-4 230-624, looked up)
chain: EEEEVAEVEEEEADDDEDDEDGDEVEEEAEEPYEEATERTTSIATTTTTTTESVEEVVRVPTTAASTPDAVDKYLETPGDENEHAHFQKAKERLEAKHRERMSQVMREWEEAERQAKNLPKADKKAVIQHFQEKVESLEQEAANERQQLVETHMARVEAMLNDRRRLALENYITALQAVPPRPRHVFNMLKKYVRAEQKDRQHTLKHFEHVRMVDPKKAAQIRSQVMTHLRVIYERMNQSLSLLYNVPAVAEEIQDEVDELLQKEQNYSDDVLANMISEPRISYGNDALMPSLTETKTTVELLPVNGEFSLDDLQPWHSFGADSVPANTENEVEPVDARPAADRGLTTRPGSGLTNIKTEEISEVKMDAEFRHDSGYEVHHQKLVFFAEDVGSNK
notes: numbers count on: APP695; Dimer by SAXS; source: expressed and purified as previously described [18]
[9]
  stoichiometry N: 2

B2: eAPP_(230–624), fragment of the APP ectodomain containing residues 230–624 (domain or fragment, UniProt P05067-4 230-624, looked up)
chain: B1 chain
notes: as for B1
[9]
  stoichiometry N: 2

B3: TRX-eAPP_(290–624), thioredoxin fusion protein containing residues 290–624 of APP695 (domain or fragment, UniProt P05067-4 290-624, looked up)
chain: PTTAASTPDAVDKYLETPGDENEHAHFQKAKERLEAKHRERMSQVMREWEEAERQAKNLPKADKKAVIQHFQEKVESLEQEAANERQQLVETHMARVEAMLNDRRRLALENYITALQAVPPRPRHVFNMLKKYVRAEQKDRQHTLKHFEHVRMVDPKKAAQIRSQVMTHLRVIYERMNQSLSLLYNVPAVAEEIQDEVDELLQKEQNYSDDVLANMISEPRISYGNDALMPSLTETKTTVELLPVNGEFSLDDLQPWHSFGADSVPANTENEVEPVDARPAADRGLTTRPGSGLTNIKTEEISEVKMDAEFRHDSGYEVHHQKLVFFAEDVGSNK
notes: as for B1
[9]
  stoichiometry N: 2
